{"source": "patent US10087225B2", "about": "“Formulation of MK2 inhibitor peptides” (MOERAE MATRIX, INC., priority 2015, dated 2018)", "experiment_in_all_cases": "Kinase Profiling Assay", "assay_type_in_all_cases": "biochemical", "settings_in_all_cases": "for % activity: 100 μM", "key": {"EphA7(h)": {"target": "EphA7(h) (Homo sapiens, UniProt Q15375)", "sequence (Q15375 28-998)": "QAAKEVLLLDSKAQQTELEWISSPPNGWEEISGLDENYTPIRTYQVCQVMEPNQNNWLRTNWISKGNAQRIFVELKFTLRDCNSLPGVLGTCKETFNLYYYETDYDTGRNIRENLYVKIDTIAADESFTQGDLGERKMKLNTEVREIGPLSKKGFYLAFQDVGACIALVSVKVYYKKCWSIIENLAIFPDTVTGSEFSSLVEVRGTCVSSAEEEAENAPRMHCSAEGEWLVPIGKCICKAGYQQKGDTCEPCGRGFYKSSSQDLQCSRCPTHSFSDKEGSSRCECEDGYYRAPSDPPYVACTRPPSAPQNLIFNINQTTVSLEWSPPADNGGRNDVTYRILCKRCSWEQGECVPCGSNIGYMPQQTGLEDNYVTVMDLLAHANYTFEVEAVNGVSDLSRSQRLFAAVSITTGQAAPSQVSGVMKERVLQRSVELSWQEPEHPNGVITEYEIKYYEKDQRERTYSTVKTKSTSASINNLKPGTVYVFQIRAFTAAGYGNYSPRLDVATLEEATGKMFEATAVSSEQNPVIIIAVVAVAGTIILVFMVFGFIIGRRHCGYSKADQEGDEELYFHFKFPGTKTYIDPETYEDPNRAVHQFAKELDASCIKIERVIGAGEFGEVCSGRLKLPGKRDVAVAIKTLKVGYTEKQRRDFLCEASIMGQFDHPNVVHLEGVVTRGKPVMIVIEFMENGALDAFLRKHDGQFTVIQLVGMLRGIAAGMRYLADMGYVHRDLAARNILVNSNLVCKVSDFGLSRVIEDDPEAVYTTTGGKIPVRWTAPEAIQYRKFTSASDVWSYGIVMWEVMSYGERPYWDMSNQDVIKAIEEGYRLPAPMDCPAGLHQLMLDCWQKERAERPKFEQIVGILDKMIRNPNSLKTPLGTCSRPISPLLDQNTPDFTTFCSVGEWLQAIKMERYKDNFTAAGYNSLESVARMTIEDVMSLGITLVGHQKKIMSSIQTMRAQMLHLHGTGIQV"}, "DRAK1(h)": {"target": "T1, DRAK1(h) (Homo sapiens, UniProt Q9UEE5)", "T1 sequence (Q9UEE5 1-414)": "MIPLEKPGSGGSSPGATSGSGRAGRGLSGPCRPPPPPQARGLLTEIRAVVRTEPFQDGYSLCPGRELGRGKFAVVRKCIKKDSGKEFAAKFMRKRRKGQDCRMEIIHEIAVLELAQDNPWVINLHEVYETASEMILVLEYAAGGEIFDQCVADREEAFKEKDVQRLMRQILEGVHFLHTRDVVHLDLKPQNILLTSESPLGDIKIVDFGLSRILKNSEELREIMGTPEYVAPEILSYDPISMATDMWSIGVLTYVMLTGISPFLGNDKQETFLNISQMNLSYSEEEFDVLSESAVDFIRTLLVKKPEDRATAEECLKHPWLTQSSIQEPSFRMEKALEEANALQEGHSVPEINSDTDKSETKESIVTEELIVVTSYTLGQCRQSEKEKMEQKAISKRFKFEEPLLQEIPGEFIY"}, "Txk(h)": {"target": "T2, Txk(h) (Homo sapiens, UniProt P42681)", "T2 sequence (P42681 1-527)": "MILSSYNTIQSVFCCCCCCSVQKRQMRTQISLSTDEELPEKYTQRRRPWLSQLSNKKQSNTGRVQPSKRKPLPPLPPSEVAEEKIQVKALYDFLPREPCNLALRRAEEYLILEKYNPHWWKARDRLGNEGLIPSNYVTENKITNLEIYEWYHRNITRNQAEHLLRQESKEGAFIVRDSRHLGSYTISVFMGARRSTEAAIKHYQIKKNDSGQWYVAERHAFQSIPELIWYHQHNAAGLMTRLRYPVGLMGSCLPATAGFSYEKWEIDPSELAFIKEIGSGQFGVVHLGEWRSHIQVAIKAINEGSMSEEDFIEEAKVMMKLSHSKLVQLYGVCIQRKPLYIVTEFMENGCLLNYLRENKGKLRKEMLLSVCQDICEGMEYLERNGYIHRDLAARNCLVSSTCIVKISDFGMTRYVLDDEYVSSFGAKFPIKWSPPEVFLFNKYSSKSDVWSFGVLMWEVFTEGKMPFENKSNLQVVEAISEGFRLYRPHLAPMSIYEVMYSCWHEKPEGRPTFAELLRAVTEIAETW"}, "PKG1β(h)": {"target": "T3, PKG1β(h) (Homo sapiens, UniProt Q13976)", "T3 sequence (Q13976 1-686 isoform Q13976-2)": "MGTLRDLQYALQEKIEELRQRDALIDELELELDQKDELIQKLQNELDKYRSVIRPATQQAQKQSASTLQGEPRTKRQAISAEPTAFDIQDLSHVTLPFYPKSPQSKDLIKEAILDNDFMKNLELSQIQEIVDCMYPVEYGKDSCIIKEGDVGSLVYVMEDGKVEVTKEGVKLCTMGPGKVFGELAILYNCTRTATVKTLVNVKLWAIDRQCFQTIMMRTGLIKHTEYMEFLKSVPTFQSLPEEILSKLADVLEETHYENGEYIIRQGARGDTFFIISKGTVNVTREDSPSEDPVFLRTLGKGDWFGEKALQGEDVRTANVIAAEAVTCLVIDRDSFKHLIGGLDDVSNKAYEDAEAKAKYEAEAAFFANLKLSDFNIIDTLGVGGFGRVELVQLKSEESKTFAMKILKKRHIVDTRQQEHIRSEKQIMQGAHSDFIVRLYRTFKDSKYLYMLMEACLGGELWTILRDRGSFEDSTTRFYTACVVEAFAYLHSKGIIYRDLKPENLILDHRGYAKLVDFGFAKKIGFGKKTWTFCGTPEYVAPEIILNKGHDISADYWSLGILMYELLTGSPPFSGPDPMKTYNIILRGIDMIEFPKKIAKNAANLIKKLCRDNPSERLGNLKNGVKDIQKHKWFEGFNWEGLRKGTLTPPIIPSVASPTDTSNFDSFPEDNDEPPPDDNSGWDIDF"}, "ZAP-70(h)": {"target": "T4, ZAP-70(h) (Homo sapiens, UniProt P43403)", "T4 sequence (P43403 1-619)": "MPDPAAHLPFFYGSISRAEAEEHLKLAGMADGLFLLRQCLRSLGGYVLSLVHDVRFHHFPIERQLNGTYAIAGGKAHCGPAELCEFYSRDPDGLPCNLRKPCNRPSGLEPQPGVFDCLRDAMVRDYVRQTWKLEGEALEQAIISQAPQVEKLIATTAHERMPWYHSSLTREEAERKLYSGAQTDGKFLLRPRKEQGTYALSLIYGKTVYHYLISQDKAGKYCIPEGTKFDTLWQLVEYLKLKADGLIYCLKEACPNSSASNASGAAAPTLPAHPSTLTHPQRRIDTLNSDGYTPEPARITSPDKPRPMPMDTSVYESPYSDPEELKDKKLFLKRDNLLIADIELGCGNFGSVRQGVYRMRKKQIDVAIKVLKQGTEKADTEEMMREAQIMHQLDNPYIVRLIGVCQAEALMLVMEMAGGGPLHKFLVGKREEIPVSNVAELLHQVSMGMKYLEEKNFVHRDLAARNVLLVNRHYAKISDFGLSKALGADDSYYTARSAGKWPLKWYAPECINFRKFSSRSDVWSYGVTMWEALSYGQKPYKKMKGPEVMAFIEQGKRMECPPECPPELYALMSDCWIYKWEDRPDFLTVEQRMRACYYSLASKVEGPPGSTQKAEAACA"}}}
{"substance": "H-YARAAARQARAKALARQLGVAA-OH [MMI-0100]", "values": [{"measurement": "activity at 100 µM", "setting": "EphA7(h)", "value": 193, "unit": "%"}, {"measurement": "activity at 100 µM", "setting": "DRAK1(h)", "value": 47, "unit": "%"}, {"measurement": "activity at 100 µM", "setting": "Txk(h)", "value": 87, "unit": "%"}, {"measurement": "activity at 100 µM", "setting": "PKG1β(h)", "value": 71, "unit": "%"}, {"measurement": "activity at 100 µM", "setting": "ZAP-70(h)", "value": 79, "unit": "%"}]}
{"substance": "HRRIKAWLKKIKALARQLGVAA (Mammalian) [MMI-0500]", "values": [{"measurement": "% activity", "setting": "EphA7(h)", "value": 189, "unit": "%"}, {"measurement": "% activity", "setting": "DRAK1(h)", "value": 8, "unit": "%"}, {"measurement": "% activity", "setting": "Txk(h)", "value": 10, "unit": "%"}, {"measurement": "% activity", "setting": "PKG1β(h)", "value": 24, "unit": "%"}, {"measurement": "% activity", "setting": "ZAP-70(h)", "value": 1, "unit": "%"}]}
{"substance": "YARAAARQARAKALNRQLGVA (Mammalian) [MMI-0200]", "values": [{"measurement": "% activity", "setting": "EphA7(h)", "value": 220, "unit": "%"}, {"measurement": "% activity", "setting": "DRAK1(h)", "value": 34, "unit": "%"}, {"measurement": "% activity", "setting": "Txk(h)", "value": 98, "unit": "%"}, {"measurement": "% activity", "setting": "PKG1β(h)", "value": 57, "unit": "%"}, {"measurement": "% activity", "setting": "ZAP-70(h)", "value": 58, "unit": "%"}]}
